Data taken from the Human Domainome abundance scans (Beltran et al. 2025).
± gives the uncertainty stated by the source.

B1: E3 ubiquitin-protein ligase NEDD4, residues 836 to 881; numbered along this chain, P46934 (parent)
chain: EIEQGFLPKGWEVRHAPNGRPFFIDHNTKTTTWEDPRLKIPAHLRG

Variants of: B1
Assay: abundance fitness (aPCA) (normalised: wild type 0, dead -1); higher = more abundant; growth selection in yeast, the domain comes from the species named
Conditions: Homo sapiens

Abundance fitness: each site, then its substitutions
T32: W -0.807 ± 0.097; L -0.85 ± 0.1; K -0.775 ± 0.046; Q 0.038 ± 0.082; Y -0.564 ± 0.07; V -0.456 ± 0.085; R -0.648 ± 0.044; G -0.619 ± 0.078; D -1.05 ± 0.28; C -0.538 ± 0.12; H -0.033 ± 0.087; M -0.705 ± 0.1; S -0.115 ± 0.05; E -0.655 ± 0.048; F -0.574 ± 0.042; A -0.779 ± 0.16; I -0.471 ± 0.14
T30: V -0.202 ± 0.039; R -0.2 ± 0.053; Y -0.818 ± 0.14; D -0.347 ± 0.085; L -0.297 ± 0.04; K -0.133 ± 0.073; P -0.961 ± 0.19; Q -0.216 ± 0.058; W -1.38 ± 0.28; H 0.276 ± 0.087; G -0.595 ± 0.055; I -0.056 ± 0.065; S -0.136 ± 0.051; F -0.466 ± 0.033; M -0.206 ± 0.073; E -0.206 ± 0.11; A -0.368 ± 0.075; N -0.566 ± 0.11
I24: W -0.356 ± 0.058; Y 0.137 ± 0.16; R -0.609 ± 0.067; T -0.701 ± 0.17; S -1.09 ± 0.2
T28: K -0.251 ± 0.042; E -0.218 ± 0.069; H -0.338 ± 0.073; A -0.383 ± 0.055; S -0.201 ± 0.048; M -0.487 ± 0.038; D -0.327 ± 0.091; G -0.187 ± 0.041; W -0.971 ± 0.071; L -0.341 ± 0.049; Y -0.548 ± 0.12; I -0.901 ± 0.16; F -0.776 ± 0.14; P -0.823 ± 0.066; V -0.78 ± 0.055; N 0.035 ± 0.067
T31: A -0.004 ± 0.044; W -0.311 ± 0.071; S 0.006 ± 0.042; F -0.42 ± 0.085; K -0.572 ± 0.12; G -0.398 ± 0.036; M -0.234 ± 0.052; H -0.578 ± 0.083; Q -0.158 ± 0.13; C -0.064 ± 0.054; L -0.356 ± 0.035; Y -0.511 ± 0.09; D -0.576 ± 0.11; V -0.185 ± 0.047; P -0.901 ± 0.081; E -0.44 ± 0.083; N -0.727 ± 0.15
D25: L -0.922 ± 0.099; H -0.394 ± 0.16; Q -0.951 ± 0.25; G -0.836 ± 0.045; N -0.261 ± 0.091; E -0.351 ± 0.13; F -1.04 ± 0.22; C -0.447 ± 0.046; M -1.15 ± 0.25; A -0.848 ± 0.049; W -0.86 ± 0.17; I -0.792 ± 0.34; R -0.682 ± 0.067; V -0.981 ± 0.061; T -0.94 ± 0.23; Y -0.768 ± 0.21; S -0.84 ± 0.061
W33: D -0.484 ± 0.13; F -0.142 ± 0.066; A -0.365 ± 0.056; E -0.221 ± 0.067; G -0.372 ± 0.047; C -0.653 ± 0.13; K -0.462 ± 0.09; N -0.431 ± 0.055; R -0.506 ± 0.047; V -0.243 ± 0.05; S -0.307 ± 0.041; L -0.433 ± 0.062; Q -0.337 ± 0.045
E34: G -0.51 ± 0.066; H -0.172 ± 0.041; L -0.155 ± 0.053; P -1.08 ± 0.24; V -0.169 ± 0.047; D -0.312 ± 0.11; S -0.163 ± 0.039; M -0.054 ± 0.075; C -0.268 ± 0.071; R -0.307 ± 0.034; A -0.182 ± 0.054; Q -0.345 ± 0.11; T -0.37 ± 0.088; K -0.369 ± 0.11
H26: A -0.69 ± 0.05; L -0.507 ± 0.05; I -0.078 ± 0.1; M -0.262 ± 0.053; F -0.209 ± 0.098; T -0.357 ± 0.079; R -0.45 ± 0.037; N -0.449 ± 0.12; Q -0.381 ± 0.043; S -0.47 ± 0.051; V -0.423 ± 0.038; W -0.327 ± 0.062; Y -0.749 ± 0.16; E -0.591 ± 0.056; D -0.515 ± 0.062; G -0.501 ± 0.036; K -0.342 ± 0.087; C -0.388 ± 0.052
N27: Y -0.593 ± 0.047; L -0.417 ± 0.053; F -0.189 ± 0.066; H -0.543 ± 0.11; C -0.405 ± 0.062; I -0.105 ± 0.046; S -0.302 ± 0.05; T -0.091 ± 0.048; A -0.295 ± 0.057; P -0.935 ± 0.16; G -0.382 ± 0.033; Q -0.364 ± 0.036; K -0.168 ± 0.045; M -0.409 ± 0.074; W -0.827 ± 0.12; D -0.12 ± 0.088
K29: C -0.323 ± 0.045; F -0.446 ± 0.11; Q -0.063 ± 0.042; V -0.82 ± 0.097; S -0.231 ± 0.053; Y -1 ± 0.34; H -0.224 ± 0.092; L -0.343 ± 0.037; E -0.324 ± 0.079; M -0.303 ± 0.081; A -0.237 ± 0.055; I -0.954 ± 0.21; N -0.089 ± 0.038; G -0.002 ± 0.038; P -0.889 ± 0.046; T -0.577 ± 0.089
